According to a protein production outcome set (Wang et al. 2014):

Assay: label from the status in PepcDB records

Sequence | protein production
MRQTFIARKISFISLIHFRDEYMSPQNNHLQRPPAAVLYADELAKLKQNDNAPCPPGWQLSLPAARAFILGDEAQNISRKVVISPSAVERMLVTLATGRGLMLVGEPGTAKSLLSELLATAISGDAGLTIQGGASTTEDQIKYGWNYALLINHGPSTEALVPAPLYQGMRDGKIVRFEEITRTPLEVQDCLLGMLSDRVMTGPELTGEASQLYAREGFNIIATANTRDRGVNEMSAALKRRFDFETVFPIMDFAQELELVASASARLLAHSGIPHKVPDAVLELLVRTFRDLRANGEKKTSMDTLTAIMSTAEAVNVAHAVGVRAWFLANRAGEPADLVECIAGTIVKDNEEDRARLRRYFEQRVATHKEAHWQAYYQARHRLP | failed
MSLKHVVVIGAVALGPKAACRFKRLDPEAHVTMIDQASRISYGGCGIPYYVSGEVSNIESLQATPYNVVRDPEFFRINKDVEALVETRAHAIDRAAHTVEIENLRTGERRTLKYDKLVLALGSKANRPPVEGMDLAGVTPVTNLDEAEFVQHAISAGEVSKAVIVGGGFIGLEMAVSLADMWGIDTTVVELADQIMPGFTSKSLSQMLRHDLEKNDVVVHTGEKVVRLEGENGKVARVITDKRTLDADLVILAAGVSPNTQLARDAGLELDPRGAIIVDTRMRTSDPDIFAGGDCVTIPNLVTGKPGFFPLGSMANRQGRVIGTNLADGDATFPGAVGSWAVKLFEGSASGAGLTVEGALREGYDAVNVHVEQFDRAHFYPEKTIMTLQLVVDRPTRRVLGIQGFSTLGDALTARINAVATMLASKPTVEDISNAEVVYSPPFASAMDIVNVAGNVADNVLAGREGHHHHHH | not failed
MIQMSSNDSSEVIRQCLQVLESITSDSSVPRNIRRSVNEIMDILNNESEPLFLRAASSISILEDISNDPNLPLHTRTLIWNLSSQLETIPVDE | failed
MSAVKSVSSFRLASLLRRENDPSAAMKLFRNPDPESTNPKRPFRYSLLCYDIIITKLGGSKMFDELDQVLLHLKTDTRIVPTEIIFCNVINFFGRGKLPSRALHMFDEMPQYRCQRTVKSLNSLLSALLKCGELEKMKERLSSIDEFGKPDACTYNILIHGCSQSGCFDDALKLFDEMVKKKVKPTGVTFGTLIHGLCKDSRVKEALKMKHDMLKVYGVRPTVHIYASLIKALCQIGELSFAFKLKDEAYEGKIKVDAAIYSTLISSLIKAGRSNEVSMILEEMSEKGCKPDTVTYNVLINGFCVENDSESANRVLDEMVEKGLKPDVISYNMILGVFFRIKKWEEATYLFEDMPRRGCSPDTLSYRIVFDGLCEGLQFEEAAVILDEMLFKGYKPRRDRLEGFLQKLCESGKLEILSKVISSLHRGIAGDADVWSVMIPTMCKEPVISDSIDLLLNTVKEDGPLSAMPQC | failed
MARRYAIYDVFTERRLAGNPLAVVFEAEGLAEEAMQAIAQEFNLSETVFILRPGNAAHSARLRIFTPAHELPFAGHPTVGAAVAIAEAAYGEANSALELMQVLEESVGPVRAAVRLKPGAATFAEFDLPRKPIRLHAQLDRQEIADALALKTTQVGFENHVPSFWSAGVPFVMIPLRDVGAAASVEFDPQRWEHLAPLAEGRLAAAYLYCRGGINHTARFHARMFAPGMGLAEDPATGSAVAALSGAINFFDGLVDGHHPMLIEQGVEMGRPSFIHLHLDIAEGKIAGARIGGHAVKVAEGELAV | failed
MNRLKNMSKYSDAKELASLTLGKKTEYANQYDPSLLQPVPRSLNRNDLHLSATLPFQGCDIWTLYELSWLNQKGLPQVAIGEVSIPATSANLIESKSFKLYLNSYNQTRFASWDEVQTRLVHDLSACAGETVTVNVKSLNEYTAEPIVTMQGECIDDQDIEIANYEFDDALLQGAAQGEEVSEVLHSHLLKSNCLITNQPDWGSVEIAYHGAKMNREALLRYLVSFREHNEFHEQCVERIFTDIMRYCQPQSLTVYARYTRRGGLDINPFRSSHQSAPNHNQRMARQ | not failed
MPFRTIARLNPAKPKAGEEFRLQVVAQHPNEPGTRRDAEGKLIPAKYINLVEVYFEGEKVAEARPGPSTSANPLYAFKFKAEKAGTFTIKLKDTDGDTGEASVKLELV | not failed
MWWWSSSTKGRSNLERFLLGITPKPPSFSLPQEQGKEEIEYFRLGDLWDCYDEMSAYGFGTQVDLNNGETVMQYYVPYLSAIQIHTNKPALLSRNQNEVAESESSEGWSDSESEKLLSRSMSNDSSKTWDAVSEDSVFDPDGSPLLKDRLGNLDFKYIERDPPHKRIPLTDKINVLVEKYPGLMTLRSVDMSPASWMAVAWYPIYHIPTCRNEKDLTTGFLTYHTLSSSFQDNVVEGDQSNNNEETEFCEDSVINKRMPLPPFGVTTYKMQGDLWGKTGFDQDRLLYLQSAADSWLKQLNVDHHDYNFFLNSSF | failed
MDYKPLAKEILKNIGTKSNVRSITHCVTRVRFVLNDESQANDEVIRDLDGVLDVVKQGGQYQVVIGPSVGSVYDAIIDVANFSDNVINSSEIAAPTSDETEEKGFLNKALGLISSIFIPVLGLLSGAGMIKAILSLCTVTGLLTAKSGTYIILSALGDTLFYFFPIVVGWSAARKFGLKEIYGVTLGAFLVYPTLATAASSTAVTTIFKGTIFALKYKMTFLGIPVALQSYSSTVIPIIIIVWFASYVYKYCDKVIPDVLKMVFVPFFTLLIAGVVSLIVIGPIAMILQNILSDTVLWLVGLNKGIAGFLLGFFWSILVMFGLHWAVIPFFAIDVAHYGYDVINPLIFAGGLAVLGSAIGVAIRARDERVKSMSVAAAISAFFGINEPALYGVLIPRKKVLLTSFLAAGIGGAIAGFSGSKLYSFGASGILGLPCFINPKGIDAGFIGLCISGIVAFVFALIAALIAGAKKDAKSKPAERHLAEHSDVYAPVAGESFDLTTVHDDVFSKLVLGDGIAVKPSDGKVYAPVTGIVRVAYPTGHAVGLASDDGEEVLIHIGIDTVNLEGKHFKMHVAQGMRVKKGDLLVDFDEAAISAAGYDTTVMMVVTKSERLKSVMPTQFGPVTKDTKVLDVELQSNSVESVTAVATND | failed
MSDKHDVIVAGAGPAGAQCARDLAERGYDVVVLEAEPEDEFPRQSNKSTAGTFASMMGAFGVPDDVVMQYTDDVVLESPHEYFVQDQPGAVLEFAEFKQWLVAAGEQQGAEYRFEARVNNPITEGGEIVGVKYDGDEEVYGDIIIDATGPAAPLAKKLGVTDLRRSNQAIGIEWEMENVAVDHEGYADLSDAMMLRLDHDLAPGGYSWIFHTGADTAKVGICYIQNESYQRFGDASKSIDDHLDYWMETDPRLADATKLAGKQHRGSAHIQLPANFSTDNFMAIGDTVPTVDPLWGEGIHKCMESARAAAITADRCFMGDDRDTSADALSIYDDLWHKRVAPNARMRLTMTQLLYLASNERYDRLMSDLQTADVGTLSGANEGGLRSLLEFVHTEDVPLLARFARDRLRA | failed
MCNAKDIYTAGWALVVMAGLVSLAIQVYLGYFRLDDMVKHLSRCRVIAIRMPLLGKDPLSRFFMLLCIGALFAMPHLFLRNGGLNVKDYRKFPLGLKWLINLFQFAALVAVIAFLVLWWVSRHL | failed
MPRALPRLPRPLLAVLSLSLTLGIAQADTAPLFSADGYRTTHYRSPTPQQVEGGQVVDTATLQSLLGQTPRPVLIDVYRRQWLQGRFIEDQPHSNLPGSLWLANTGDGELSPAWQDYFVRNLQKATAGHLDQPLVFYCRSDCWLSWNAVKRAKALGYNNLYWYRDGLDAWQQANLPLQPAQPVPFP | failed
MHFTRALRIQLIPSFFFRAIYPLVVLLILLHAQSGLAETIYRSTDSHGRTLYSDIPTPAAKPLQPATPPARSKYRVTRVIDGDTIVLENNKRVRLLGINAPETGNRYHPGEPGGADAKKWLRGKLQGRSVYLEHDRQTHDHYKRMLAHLYLPDGEHINLSLVEKGLAIANLIPPNLLHANTLIRAQQRAETRKLGIWSMQHYQPRPLIKLTEKPFGWQRYRVKAKVLKRNHRFSRLIISDNLDLSFANRDLALFPPLETYLNRPLEVRGWVSRRKNHFSIRIQHPSALILY | failed
MIPFDYIVEKTVSTGVLVDVIGALLEVGNLTEDYRGLKLPFKIMDQYKEVLQCEAHNDQALEFQRFFQRLTGPQNVIALVSWRLSGIYKLKTLSNDPISKVIANPDIPEVEEIRVVVY | failed
MKICHRYIAWQVLTGMVIATAILLPLFSFFDLLDQLDDVGKGTYTTWDAFLYTVMLMPRRFIQIAPFIALLGTVGALGALAVNLELVAMRVAGLSPLMIGLAPVGIGGLLIASTIALEYFVAPQFQQQATILRAVALEQGAELGKGLGIWTRNERNILRIGEMLHKGRATDIEVIHFDGEGSMTAHVHAWYADIFDESLWKLHDVTIRTFSPDRITSRKAHILQWHSFLGPDDIATLTKSPESLTPIELVKHAEFLRATGQKADAYVMALWRKVGGAIMTIAMILVAIPFIFGSVREGLGGKLILAALMGISIYLFDQIIANIGLVFQLNPIVVSVVPGMVLIAVAAHWLLRRTF | failed
